Experimental data from patent publication US20230093708A1, “PROTEIN NANOPARTICLE DESIGN AND APPLICATION” (Duke University, priority 2020, published 2023).

Test: Static and dynamic light scattering (SLS/DLS) of block co-polypeptides
Assay type: physicochemical
Details: for ρ: shape factor Rg/Rh
Method: Key parameters of interest are the hydrophilicity of the corona-forming block, the hydrophilicity of the core block, the overall length of the co-polypeptide and the ratio of the two blocks. Parameters of evaluation are the size, morphology, stability, and thermoresponsive behavior. All measurements were made in 140 mM NaCl, 10 mM phosphate buffer, 3 mM KCl, pH 7.4 unless otherwise specified. Size was evaluated by the hydrodynamic radios (Rh) and radius of gyration (Rg) by dynamic light scattering (DLS) and static light scattering (SLS) respectively. Rg and Rh can be combined to yield the shape factor ρ=Rg/Rh, which provides a rough indication of the morphology of the scatterer. […] For an elongated scatterer, the shape factor depends upon the aspect ratio. A combination of temperature dependent turbidity and DLS was utilized to determine the phase behavior of the block co-polypeptides. Cryogenic transmission electron microscopy (Cryo-TEM) was utilized to evaluate the morphology and provide crucial insight into the hydration of the core/corona chains. Stability of the assembled nanostructure was determined by a shift in the I1/I3 fluorescent bands of pyrene as described previously.
Static and dynamic light scattering measurements (SLS/DLS) were performed using an ALV/CGS-3 goniometer system (Langen, Germany). Samples for the ALV/CGS-3 goniometer system were prepared at a concentration of 10 μM in PBS and filtered through 0.45 μm Millex-GV filters into a 10 mm disposable borosilicate glass tube (Fischer). Simultaneous SLS and DLS measurements were obtained at 15° C. of the ELP for angles between 30°-150° at 5° increments, with each angle consisting of 3 runs for 15 s. SLS experiments were only conducted for self-assembling block co-polypeptides, since the molecular weight of a single block co-polypeptide chain is already known, and the Rg of a single chain is likely near or below the detection limit of the SLS instrument. The differential refractive index (dn/dc) was determined by measuring the refractive index at different concentrations using an Abbemat 500 refractometer (Anton Paar, Graz, Austria). DLS data were analyzed by fitting the autocorrelation function with a cumulant fit, using the built-in ALV software. Hydrodynamic radius (Rh) was plotted against angle and extrapolated to zero. SLS data were analyzed by partial Zimm plots using ALVSTAT software in order to determine the Rg and molecular weight (MW).

B1: RLP20-ELP40: RLP-ELP block co-polypeptide, (QYPSDGRG)20-(VPG[A:G]G)40 (protein)
chain: QYPSDGRGQYPSDGRGQYPSDGRGQYPSDGRGQYPSDGRGQYPSDGRGQYPSDGRGQYPSDGRGQYPSDGRGQYPSDGRGQYPSDGRGQYPSDGRGQYPSDGRGQYPSDGRGQYPSDGRGQYPSDGRGQYPSDGRGQYPSDGRGQYPSDGRGQYPSDGRGGAGVPGGGVPGAGVPGGGVPGAGVPGGGVPGAGVPGGGVPGAGVPGGGVPGAGVPGGGVPGAGVPGGGVPGAGVPGGGVPGAGVPGGGVPGAGVPGGGVPGAGVPGGGVPGAGVPGGGVPGAGVPGGGVPGAGVPGGGVPGAGVPGGGVPGAGVPGGGVPGAGVPGGGVPGAGVPGGGVPGAGVPGGGVPGAGVPGGGVP
hydrodynamic radius (Rh): 5.3 nm
Rh (nm) (Table 3, 10 μM in PBS, 15 °C): 5.3 nm

B2: RLP60-ELPV80: RLP-ELP block co-polypeptide with Val guest residue in the corona (protein)
chain: QYPSDGRGQYPSDGRGQYPSDGRGQYPSDGRGQYPSDGRGQYPSDGRGQYPSDGRGQYPSDGRGQYPSDGRGQYPSDGRGQYPSDGRGQYPSDGRGQYPSDGRGQYPSDGRGQYPSDGRGQYPSDGRGQYPSDGRGQYPSDGRGQYPSDGRGQYPSDGRGQYPSDGRGQYPSDGRGQYPSDGRGQYPSDGRGQYPSDGRGQYPSDGRGQYPSDGRGQYPSDGRGQYPSDGRGQYPSDGRGQYPSDGRGQYPSDGRGQYPSDGRGQYPSDGRGQYPSDGRGQYPSDGRGQYPSDGRGQYPSDGRGQYPSDGRGQYPSDGRGQYPSDGRGQYPSDGRGQYPSDGRGQYPSDGRGQYPSDGRGQYPSDGRGQYPSDGRGQYPSDGRGQYPSDGRGQYPSDGRGQYPSDGRGQYPSDGRGQYPSDGRGQYPSDGRGQYPSDGRGQYPSDGRGQYPSDGRGQYPSDGRGQYPSDGRGQYPSDGRGGVGVPGVGVPGVGVPGVGVPGVGVPGVGVPGVGVPGVGVPGVGVPGVGVPGVGVPGVGVPGVGVPGVGVPGVGVPGVGVPGVGVPGVGVPGVGVPGVGVPGVGVPGVGVPGVGVPGVGVPGVGVPGVGVPGVGVPGVGVPGVGVPGVGVPGVGVPGVGVPGVGVPGVGVPGVGVPGVGVPGVGVPGVGVPGVGVPGVGVPGVGVPGVGVPGVGVPGVGVPGVGVPGVGVPGVGVPGVGVPGVGVPGVGVPGVGVPGVGVPGVGVPGVGVPGVGVPGVGVPGVGVPGVGVPGVGVPGVGVPGVGVPGVGVPGVGVPGVGVPGVGVPGVGVPGVGVPGVGVPGVGVPGVGVPGVGVPGVGVPGVGVPGVGVPGVGVPGVGVPGVGVPGVGVPGVGVPGVGVP
Nagg (Table 5, 10 μM in PBS, 15 °C): 565
Rg(nm) (Table 5, 10 μM in PBS, 15 °C): 41.3 nm
Rh (nm) (Table 5, 10 μM in PBS, 15 °C): 39.4 nm
ρ (Table 5): 1.0

B3: RLP60-ELPS80: RLP-ELP block co-polypeptide with Ser guest residue in the corona (protein)
chain: QYPSDGRGQYPSDGRGQYPSDGRGQYPSDGRGQYPSDGRGQYPSDGRGQYPSDGRGQYPSDGRGQYPSDGRGQYPSDGRGQYPSDGRGQYPSDGRGQYPSDGRGQYPSDGRGQYPSDGRGQYPSDGRGQYPSDGRGQYPSDGRGQYPSDGRGQYPSDGRGQYPSDGRGQYPSDGRGQYPSDGRGQYPSDGRGQYPSDGRGQYPSDGRGQYPSDGRGQYPSDGRGQYPSDGRGQYPSDGRGQYPSDGRGQYPSDGRGQYPSDGRGQYPSDGRGQYPSDGRGQYPSDGRGQYPSDGRGQYPSDGRGQYPSDGRGQYPSDGRGQYPSDGRGQYPSDGRGQYPSDGRGQYPSDGRGQYPSDGRGQYPSDGRGQYPSDGRGQYPSDGRGQYPSDGRGQYPSDGRGQYPSDGRGQYPSDGRGQYPSDGRGQYPSDGRGQYPSDGRGQYPSDGRGQYPSDGRGQYPSDGRGQYPSDGRGQYPSDGRGGSGVPGSGVPGSGVPGSGVPGSGVPGSGVPGSGVPGSGVPGSGVPGSGVPGSGVPGSGVPGSGVPGSGVPGSGVPGSGVPGSGVPGSGVPGSGVPGSGVPGSGVPGSGVPGSGVPGSGVPGSGVPGSGVPGSGVPGSGVPGSGVPGSGVPGSGVPGSGVPGSGVPGSGVPGSGVPGSGVPGSGVPGSGVPGSGVPGSGVPGSGVPGSGVPGSGVPGSGVPGSGVPGSGVPGSGVPGSGVPGSGVPGSGVPGSGVPGSGVPGSGVPGSGVPGSGVPGSGVPGSGVPGSGVPGSGVPGSGVPGSGVPGSGVPGSGVPGSGVPGSGVPGSGVPGSGVPGSGVPGSGVPGSGVPGSGVPGSGVPGSGVPGSGVPGSGVPGSGVPGSGVPGSGVPGSGVPGSGVP
Nagg (Table 5, 10 μM in PBS, 15 °C): 244
Rg(nm) (Table 5, 10 μM in PBS, 15 °C): 27.5 nm
Rh (nm) (Table 5, 10 μM in PBS, 15 °C): 43.5 nm
ρ (Table 5): 0.6

B4: [S]-80-[NHQ]-40: block co-polypeptide of two UCST blocks, (GRGDSPYS)80-(GRGDNPHQ)40 (protein)
chain: GRGDSPYSGRGDSPYSGRGDSPYSGRGDSPYSGRGDSPYSGRGDSPYSGRGDSPYSGRGDSPYSGRGDSPYSGRGDSPYSGRGDSPYSGRGDSPYSGRGDSPYSGRGDSPYSGRGDSPYSGRGDSPYSGRGDSPYSGRGDSPYSGRGDSPYSGRGDSPYSGRGDSPYSGRGDSPYSGRGDSPYSGRGDSPYSGRGDSPYSGRGDSPYSGRGDSPYSGRGDSPYSGRGDSPYSGRGDSPYSGRGDSPYSGRGDSPYSGRGDSPYSGRGDSPYSGRGDSPYSGRGDSPYSGRGDSPYSGRGDSPYSGRGDSPYSGRGDSPYSGRGDSPYSGRGDSPYSGRGDSPYSGRGDSPYSGRGDSPYSGRGDSPYSGRGDSPYSGRGDSPYSGRGDSPYSGRGDSPYSGRGDSPYSGRGDSPYSGRGDSPYSGRGDSPYSGRGDSPYSGRGDSPYSGRGDSPYSGRGDSPYSGRGDSPYSGRGDSPYSGRGDSPYSGRGDSPYSGRGDSPYSGRGDSPYSGRGDSPYSGRGDSPYSGRGDSPYSGRGDSPYSGRGDSPYSGRGDSPYSGRGDSPYSGRGDSPYSGRGDSPYSGRGDSPYSGRGDSPYSGRGDSPYSGRGDSPYSGRGDSPYSGRGDSPYSGRGDSPYSGRGDNPHQGRGDNPHQGRGDNPHQGRGDNPHQGRGDNPHQGRGDNPHQGRGDNPHQGRGDNPHQGRGDNPHQGRGDNPHQGRGDNPHQGRGDNPHQGRGDNPHQGRGDNPHQGRGDNPHQGRGDNPHQGRGDNPHQGRGDNPHQGRGDNPHQGRGDNPHQGRGDNPHQGRGDNPHQGRGDNPHQGRGDNPHQGRGDNPHQGRGDNPHQGRGDNPHQGRGDNPHQGRGDNPHQGRGDNPHQGRGDNPHQGRGDNPHQGRGDNPHQGRGDNPHQGRGDNPHQGRGDNPHQGRGDNPHQGRGDNPHQGRGDNPHQGRGDNPHQ
Rh (nm) (Table 9, UCST-UCST block co-polypeptides): 7.0 nm
